Reference: article PMC11381367

Experiments:
RCC1 = assay: SPR; conditions: EMSA: 20 mM HEPES pH 7.6, 50 mM NaCl, 5% sucrose, 1 mM DTT, 2.5 mM MgCl2, 0.1 mg/ml BSA, on ice 1 h, SPR: 10 mM HEPES pH 7.4, 150 mM NaCl, 3 mM EDTA, 0.05% …
[1] = target: H2AK119ub nucleosome (dichloroacetone-linked ubiquitin on histone H2A-K119, Xenopus laevis histones) (Xenopus laevis | not stated) (UniProt P06897); assay: SPR; Biacore 8K; 5' biotinylated 185 bp nucleosome (about 200 RU) captured on streptavidin on a CM5 chip; RCC1 as analyte in 2-fold dilutions; HBS-EP+ (10 mM HEPES pH 7.4, 150 mM NaCl, 3 mM EDTA, 0.05% Tween-20); 1:1 steady-state affinity fit, two replicates
[2] = target: unmodified nucleosome (Xenopus laevis histones, Widom 601 DNA) (Xenopus laevis); assay: as above

RCC1, sequence (P18754 whole entry): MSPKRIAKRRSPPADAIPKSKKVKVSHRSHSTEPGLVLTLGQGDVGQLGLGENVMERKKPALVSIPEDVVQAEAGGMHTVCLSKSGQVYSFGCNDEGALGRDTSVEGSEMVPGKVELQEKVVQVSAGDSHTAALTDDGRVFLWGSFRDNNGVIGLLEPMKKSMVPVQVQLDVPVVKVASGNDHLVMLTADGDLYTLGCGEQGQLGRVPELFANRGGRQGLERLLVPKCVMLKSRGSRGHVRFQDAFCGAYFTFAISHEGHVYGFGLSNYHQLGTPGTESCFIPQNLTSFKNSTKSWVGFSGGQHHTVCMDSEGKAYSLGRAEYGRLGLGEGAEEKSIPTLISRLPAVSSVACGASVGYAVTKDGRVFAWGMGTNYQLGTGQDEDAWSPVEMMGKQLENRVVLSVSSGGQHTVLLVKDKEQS

## H2AK119ub nucleosome, 185 bp 601 (SPR)
RCC1; histone H2AK119ub
  Kd: 540 nM

## unmodified nucleosome, 185 bp 601 (SPR)
RCC1; unmodified histones
  Kd: 730 nM

## H2BK120ub nucleosome, 185 bp 601 (SPR)
RCC1; histone H2BK120ub
  Kd: > 10000 nM

## RCC1 (from UniProt P18754 1-421) (natural protein)
[1]
  Kd: 540 nM
[2]
  Kd: 730 nM
